Assay results reported in US12281340B2, “Method of producing N-acyl-amino group-containing compound” (AJINOMOTO CO., INC., priority 2018, dated 2025).

Key:
Type in all cases: biochemical
[1] = Synthesis of N-caprinoyl-amino acid derivative, N-caprinoyl-D-amino acid and N-caprinoyl-peptide using purified acylamino acid synthetase, UPLC-MS detection; parameters: key: +: Detected; −: Not detected; settings: +ATP
How it was run: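 Purified enzyme (50 μg/mL) was incubated with 5 mM sodium caprate, 5 mM amino acid derivative, D-amino acid or peptide, 10 mM ATP, 10 mM MgCl2 and 1 mM DTT in 50 mM Tris-HCl, pH 8.0, for 24 h at 25 °C. After acidic methanol stop, UPLC-MS looked for the mass of the N-caprinoyl product.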

[2] = Synthesis of N-acylamino acids from various fatty acids using purified acylamino acid synthetase, UPLC-MS detection; parameters: key: +: Detected; −: Not detected
How it was run: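 Purified enzyme (200 μg/mL) with 5 mM amino acid, 5 mM sodium fatty acid (3 mM palmitate or stearate, plus 10% methanol), 10 mM ATP, 10 mM MgCl2, 1 mM DTT in 50 mM Tris-HCl pH 8.0, shaken 24 h at 25 °C. Amino acid varied by enzyme; product mass detected by UPLC-MS (ESI-negative).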

[3] = Analysis of ATP dependency of acylamino acid synthetase; settings: Gly and sodium caprate
Experimental: 0.25 mL of a reaction solution containing 50 mM Tris-HCl, 5 mM amino acid, 5 mM sodium caprate, 10 mM or 0 mM ATP, 10 mM MgCl2, 1 mM DTT, 50 μg of the purified enzyme, pH 8.0 was incubated at 25° C. for 24 hours. As the amino acid, L-Asp and Gly were used in AtGH3-6 and CfHP, respectively. After completion of the reaction, 0.8 mL of the reaction stop solution (1% (v/v) phosphoric acid, 75% (v/v) methanol) was added to 0.2 mL of the reaction solution, and the mixture was filtrated through the filter followed by being subjected to the UPLC-MS analysis to quantify a produced N-caprinoylamino acid by detection at UV 210 nm. The condition for the UPLC-MS analysis is as described in Example 2. As a result of the analysis, 3.8 mM and […] of the N-caprinoylamino acids were detected in AtGH3-6 and CfHP, respectively in the presence of ATP. However, in the absence of ATP, no signal of the molecular weight corresponding to the N-caprinoylamino acid was detected when any of AtGH3-6 and CfHP was used.

B1: CfHP: hypothetical protein from Cystobacter fuscus (GH3 protein), His-tagged (protein, listed as Cystobacter fuscus)
chain: MQAAGRRDKQRFIEQTRHVARVNVDTLRAILQHNRDTDFGRRHGFASLRTVEDFQRALPVSTYEPFRPYMERIARGEQNVLTADRVEYLGITSGTTGQRKLLPVSRPHLENMRRTMMIGRAVVTEKVPAARRPSRGMILMNAVLRERSEGGLLTGALTAISTHSMGRAASFAFTSPPEAFRLRKHADALYLHLLFGLRERELGTLMAPFASGLLDMVHLLERRGADLVDDIARGVLRPELDLEPEQRRLLQSRLLPDPERAREVSQALEQGPHGLLRRLWPRLAYVSSITGASFSLYTRQLTPYLEGVPLSAASYVSTEGILGVPLELEQAVYCLMVGMAFFEFIPERELDAESPTTLLPEQLVEGEAYEVVLTTQAGLYRYRLGDVVRIVGRYHEAPLMEFLYRRGALLNLMGEKTSEHAARLALEQALATEGLLPADYSVVEETETLPGRYALFVELQEGARPQGAPEQLSRALEEALCRTNPFYEVIRRSERLGAAQLHRVEPGTFQALRDVLVQRGASPTQVKVPRVVRDAELQGLLRQRRVTG
modifications: His-tag
notes: hypothetical protein from Cystobacter fuscus (GH3 protein), His-tagged
no signal: signal of molecular weight corresponding to N-caprinoyl amino acid ([3]; in the absence of ATP)
+: signal of molecular weight corresponding to N-caprinoyl compound ([1]; substrates Carnosine and sodium caprate) | signal of molecular weight corresponding to N-caprinoyl compound ([1]; substrates D-Ala and sodium caprate) | signal of molecular weight corresponding to N-caprinoyl compound ([1]; substrates D-Asp and sodium caprate) | signal of molecular weight corresponding to N-caprinoyl compound ([1]; substrates D-Cys and sodium caprate) | signal of molecular weight corresponding to N-caprinoyl compound ([1]; substrates D-Glu and sodium caprate) | signal of molecular weight corresponding to N-caprinoyl compound ([1]; substrates D-Ile and sodium caprate) | signal of molecular weight corresponding to N-caprinoyl compound ([1]; substrates D-Lys and sodium caprate) | signal of molecular weight corresponding to N-caprinoyl compound ([1]; substrates L-Asp-L-Phe and sodium caprate) | signal of molecular weight corresponding to N-caprinoyl compound ([1]; substrates L-Gly-L-Gly and sodium caprate) | signal of molecular weight corresponding to N-caprinoyl compound ([1]; substrates Sarcosine and sodium caprate) | signal of molecular weight corresponding to N-caprinoyl compound ([1]; substrates Taurine and sodium caprate) | signal of molecular weight corresponding to N-acylamino acid ([2]; substrates Gly and Capric acid) | signal of molecular weight corresponding to N-acylamino acid ([2]; substrates Gly and Caproic acid) | signal of molecular weight corresponding to N-acylamino acid ([2]; substrates Gly and Caprylic acid) | signal of molecular weight corresponding to N-acylamino acid ([2]; substrates Gly and Lauric acid) | signal of molecular weight corresponding to N-acylamino acid ([2]; substrates Gly and Palmitic acid) | signal of molecular weight corresponding to N-acylamino acid ([2]; substrates Gly and myristic acid)
5.2 mM: N-caprinoylamino acid detected ([3]; in the presence of ATP (10 mM), UV 210 nm)
−: signal of molecular weight corresponding to N-acylamino acid ([2]; substrates Gly and Linoleic acid)
